Some targets named below: Nb19; Nb20; Nb12; Nb6.
Assay in all cases: SPR
In general terms: SPR reads the build-up and loss of mass on a sensor chip optically.

Experiment [1] deals with T1, recombinant human NEDP1 protein (human, UniProt Q96LD8 1-212).
T1 chain: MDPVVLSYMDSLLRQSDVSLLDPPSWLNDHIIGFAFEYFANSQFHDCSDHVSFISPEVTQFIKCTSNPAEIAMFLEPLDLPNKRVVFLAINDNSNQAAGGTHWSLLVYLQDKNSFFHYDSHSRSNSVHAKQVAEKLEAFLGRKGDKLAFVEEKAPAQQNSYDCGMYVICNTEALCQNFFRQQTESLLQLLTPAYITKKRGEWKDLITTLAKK

These results are taken from patent US20250101133A1 (published 2025).

What is called Kd is the concentration at which binding is half-saturated.

B1: human NEDP1 (enzyme)
chain: T1 chain
For B1, the Kd was 0.196 nM in the experiment with Nb19, 0.203 nM with Nb20, 0.33 nM with Nb12 and under 0.01 nM with Nb6.

B2: AbR2DP46, purified His6-tagged nanobody (VHH)
VHH: QVQLQESGGGLVQAGGSLRLSCAASGSPFSIGTMAWYRQAPGNQRASVAAITRGGATTYANSVKGRFTVSRDNAKNTVYLQMNSLKPEDTAAYYCSVWAGDRAYWGQGTQVTVSS
With B2, the Kd in experiment [1] amounted to 6.98 nM.

B3: AbR2DP47, purified His6-tagged nanobody (VHH)
VHH: QVQLQESGGGLVEPGGSLRLSCAASGSISSINVMAWYRQAPGKQRESVAAISSFGITTYSETVKGRFTASRDNAKNTMYLQMNNLKPEDTAVYYCKGPNTDWGQGTQVTVSS
As for B3, the dissociation constant Kd in experiment [1] came out at 5.39 nM.

B4: AbR2DP35, purified His6-tagged nanobody (VHH)
VHH: QVQLQESGGGLVQPGGSLTLSCAASGVMFSTGVMGWYRQAPGKQREAVAAITSGGLTTYKDSVKGRFAISRDNTKSTGYLQMNRLRPEDTAVYYCNVRGYWGQGTQVTVSS
As for B4, in experiment [1], the Kd was under 0.01 nM.

B5: AbR2DP12, purified His6-tagged nanobody (VHH)
VHH: QVQLQESGGGLVQAGGSLRLSCAASGSTSSFNVMAWYHQAPGKQRESVASITSGGITVYRDSVKGRFAISSDNAKNTVFLQMNSLKPEDTGVYYCGGVVDGRVYRGQGTQVTVSS
With B5, the dissociation constant Kd in experiment [1] is under 0.01 nM.
